Test results from patent publication US20070243589A1 (Pfizer, published 2007).
One block for each binder: values may come before it.

Assays:
[1] = biological target: T1, biotinylated IL-22 with an N-terminal His/FLAG tag (bio.IL-22H/F) (human, UniProt Q9GZX6 34-179, biotinylated (site not stated)); test: IL-22 receptor complex inhibition assay (bio.IL-22H/F binding to IL-22 receptor complex, DELFIA), IgG
T1 construct: not shown: N-terminal His/FLAG tag
T1 sequence: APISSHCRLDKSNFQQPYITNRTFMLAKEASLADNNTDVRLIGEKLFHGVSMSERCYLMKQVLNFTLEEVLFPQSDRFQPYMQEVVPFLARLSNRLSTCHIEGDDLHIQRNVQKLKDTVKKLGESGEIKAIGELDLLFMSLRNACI
Description: Potency of purified IgG was verified in the biochemical IL-22 receptor complex inhibition assay as described below. IgG concentrations were titrated in order to obtain potency values.
(§1) Microtiter plates were coated with an IL-22 receptor complex antibody (1 μg/ml in PBS), and incubated for 1.5 hours at room temperature. Plates were washed three times in PBST, and blocked for 1 hour at room temperature with 2% MPBS. After a further 3 washes, diluted cell conditioned medium containing an IL-22 receptor complex was added and incubated overnight at 4° C. Crude scFv supernatants were prepared as described above. The following day, 25 μl of diluted scFv sample and 25 μl of bio.IL-22H/F (6 ng/ml) were added to the washed plates, and incubated for 1.5 hours at room temperature. Plates were washed 3 times in PBST, then binding of bio.IL-22H/F to the IL-22 receptor complex was detected with Europium-Streptavidin and the DELFIA® reagent kit (PerkinElmer). Time Resolved Fluorescence was measured using a Victor 2™ Plate Reader (Perkin Elmer).

[2] = biological target: T1, biotinylated IL-22 with an N-terminal …; test: biotinylated IL-22 binding IL-22 receptor complex competition assay, purified scFv, parent
Description: as §1
(§2) Sequence data for the six parent clones was used to identify the nearest germline sequence for the heavy and light chain of each clone. Appropriate mutations were made using standard site directed mutagenesis techniques with the appropriate mutagenic primers. Mutation of sequences was confirmed by sequence analysis. Purified scFv from the germlined parent clones were tested in the biotinylated IL-22 binding IL-22 receptor complex competition assay as described earlier, in order to establish the clone potency as measured by IC₅₀ values in the assay.

[3] = biological target: T1, biotinylated IL-22 with an N-terminal …; test: IL-22 receptor complex inhibition assay (bio.IL-22H/F binding to IL-22 receptor complex, DELFIA), scFv
Description: (§3) Both the IL-22/IL-22R binding assay (described above) and the IL-22/IL-22 receptor complex assay (described below) were used. ScFv concentrations were titrated in order to establish the clone potencies as measured by assay IC₅₀ values. These were determined using GraphPad Prism software and four-parameter logistic equation curve fitting.
as §1

[4] = biological target: T1, biotinylated IL-22 with an N-terminal …; test: DELFIA competition assay: scFv titrated against bio.IL-22H/F binding to the captured IL-22 receptor complex
Description: as §3, §1

[5] = biological target: T1, biotinylated IL-22 with an N-terminal …; test: as above; remark: listed apart in the source
Description: as §1
Purified scFv from positive clones identified from the screening were tested in the DELFIA® IL-22 receptor complex competition assay as described above. A titration of scFv concentrations was used in order to establish the clone potency as measured by IC₅₀ values in the assay. Fourteen optimized clones were designated 097D09, 062A09, 062G05, 087B03, 367D04, 368D04, 166B06, 166G05, 375G06, 376B10, 354A08, 355B06, 355E04, and 356A11.

[6] = biological target: T1, biotinylated IL-22 with an N-terminal …; test: biotinylated IL-22 binding IL-22 receptor complex competition assay, purified scFv, fully germlined
Description: as §1, §2

IC50 [1]: 15 nM
B1: GIL60 IgG (non-germlined parent) (antibody, V domains shown)
VH: EVQLVESGGGVVRPGGSLRLSCAASGFTFDDYGMNWVRQAPGKGLEWVSGVNWNGGTRDYAASVKGRFTISRDNAKNSLYLQMNSLRAEDTALYYCARGWYSGSFYYFGYWGRGTLVTVSS
VL: QAVLTQPSSVSGSPGQSITISCTGASGDVGAYNFVSWYQQHPGKTPKLIIYDVNKRPSGVSNRFSGSKSGNTASLTISGLQAEDESDYYCSSYTSTFSVVFGGGTKVTVLG
notes: Human IgG4 heavy chain constant domain

IC50 [2]: 124 nM | IC50 [3]: 104 nM | IC50 [4]: 95 nM | IC50 [5]: 129 nM
B2: GIL01 scFv (non-germlined parent) (scFv)
scFv: EVQLVESGGGLVTPGGSLRLSCAASGFTFSDYYMSWIRQAPGRGLEWVSAISGSGGSTYYADSVKGRITISRDNAKNSLYLQMSSLRSEDTAVYYCARGLWVWDPLDYWGRGTLVTVSSGGGGSGGGGSGGGGSDIQMTQSPSTLSASIGDRVTITCRASEGIYHWLAWYQQKPGKAPKLLIYKASSLASGAPSRFSGSGSGTDFTLTISSLQPDDFATYYCQQYSNYPLTFGGGTKLEIKRAAA
notes: also called GIL 1

IC50 [2]: 18 nM | IC50 [3]: 16 nM | IC50 [4]: 40 nM | IC50 [5]: 15.3 nM
B3: GIL92 scFv (non-germlined parent) (scFv)
scFv: QVQLVQSGAEVKKPGASVKVSCKASGYTFTDYYMHWVRQAPGQGLEWVGWINPYTGGAFYAQKFRGRVTMTRDTSINTAYMELSRLGSDDTAVYYCAREPEKFDFWGGDNWGRGTMVTVSSGGGGSGGGGSGGGGSAQAVLTQPSSVSGAPGQRVTISCTGSSSNIGAGYGVHWYQQLPGTAPKLLIYGNSNRPSGVPDRFSGSKSGTSASLAITGLQAEDEADYYCQSYDSSLSGYVFGTGTQLTVLSAAA

IC50 [6]: 40 nM
B4: GIL92 scFv, fully germlined (scFv)
scFv: QVQLVQSGAEVKKPGASVKVSCKASGYTFTDYYMHWVRQAPGQGLEWVGWINPYTGGAFYAQKFRGRVTMTRDTSISTAYMELSRLRSDDTAVYYCAREPEKFDFWGGDNWGRGTLVTVSSGGGGSGGGGSGGGGSAQAVLTQPPSVSGAPGQRVTISCTGSSSNIGAGYGVHWYQQLPGTAPKLLIYGNSNRPSGVPDRFSGSKSGTSASLAITGLQAEDEADYYCQSYDSSLSGYVFGGGTQLTVLSA

IC50 [6]: 143 nM
B5: GIL01 scFv, fully germlined (scFv)
scFv: QVQLVESGGGLVKPGGSLRLSCAASGFTFSDYYMSWIRQAPGKGLEWVSAISGSGGSTYYADSVKGRITISRDNAKNSLYLQMNSLRAEDTAVYYCARGLWVWDPLDYWGRGTLVTVSSGGGGSGGGGSGGGGSDIQMTQSPSTLSASVGDRVTITCRASEGIYHWLAWYQQKPGKAPKLLIYKASSLASGVPSRFSGSGSGTDFTLTISSLQPDDFATYYCQQYSNYPLTFGGGTKVEIKRA

IC50 [6]: 38 nM
B6: GIL16 scFv, fully germlined (scFv)
scFv: QVQLVQSGAEVKKPGASVKVSCKASGYTFTSYGISWVRQAPGQGLEWMGWISAYTGNTNYAQKFQGRVTMTTDTSTSTAYMELRSLRSDDTAVYYCARDRGYYDAFDIWGQGTLVTVSSGGGGSGGGGSGGGGSDIQMTQSPSTLSASVGDRVTITCRASEGIYHWLAWYQQKPGKAPKLLIYKASSLASGVPSRFSGSGSGTEFTLTISSLQPDDFATYYCQQYSNYPLTFGGGTKVEIKRA

IC50 [2]: 44 nM | IC50 [3]: 49 nM | IC50 [4]: 55 nM | IC50 [5]: 25.9 nM
B7: GIL16 scFv (non-germlined parent) (scFv)
scFv: QVQLVESGAEVKKPGASVKVSCKASGYTFTSYGISWVRQAPGQGLEWMGWISAYTGNTNYAQKFQGRVTMTTDTSTSTAYMELRSLRSDDTAVYYCARDRGYYDAFDIWGQGTLVTVSSGGGGSGGGGSGGGGSDIQMTQSPSTLSASIGDRVTITCRASEGIYHWLAWYQQKPGKAPKLLIYKASSLASGAPSRFSGSGSGTDFTLTISSLQPDDFATYYCQQYSNYPLTFGGGTKLEIKRAAA

IC50 [1]: 13 nM
B8: GIL01 IgG (non-germlined parent) (antibody, V domains shown)
VH: EVQLVESGGGLVTPGGSLRLSCAASGFTFSDYYMSWIRQAPGRGLEWVSAISGSGGSTYYADSVKGRITISRDNAKNSLYLQMSSLRSEDTAVYYCARGLWVWDPLDYWGRGTLVTVSS
VL: DIQMTQSPSTLSASIGDRVTITCRASEGIYHWLAWYQQKPGKAPKLLIYKASSLASGAPSRFSGSGSGTDFTLTISSLQPDDFATYYCQQYSNYPLTFGGGTKLEIKR
notes: as for B1

IC50 [1]: 10 nM
B9: GIL16 IgG (non-germlined parent) (antibody, V domains shown)
VH: QVQLVESGAEVKKPGASVKVSCKASGYTFTSYGISWVRQAPGQGLEWMGWISAYTGNTNYAQKFQGRVTMTTDTSTSTAYMELRSLRSDDTAVYYCARDRGYYDAFDIWGQGTLVTVSS
VL: B8 VL
notes: as for B1

IC50 [2]: 51 nM | IC50 [3]: 43 nM | IC50 [4]: 60 nM | IC50 [5]: 30.8 nM
B10: GIL60 scFv (non-germlined parent) (scFv)
scFv: EVQLVESGGGVVRPGGSLRLSCAASGFTFDDYGMNWVRQAPGKGLEWVSGVNGNGGTRDYAASVKGRFTISRDNAKNSLYLQMNSLRAEDTALYYCARGWYSGSFYYFGYWGRGTLVTVSSGGGGSGGGGSGGGGSAQAVLTQPSSVSGSPGQSITISCTGASGDVGAYNFVSWYQQHPGKTPKLIIYDVNKRPSGVSNRFSGSKSGNTASLTISGLQAEDESDYYCSSYTSTFSVVFGGGTKVTVLGAA

IC50 [6]: 14 nM
B11: GIL68 scFv, fully germlined (scFv)
scFv: QVQLVQSGAEVKKPGASVKVSCKASGYTFSDYYIHWVRQAPGQGLEWMGWVNPDTGGTRYAQKFQGRVTMTRDMSISTAYMELSRLRSDDTAVYYCARDLTGFDPFDIWGQGTLVTVSSGGGGSGGGGSGGGGSASSVLTQPPSVSVAPGKTARITCGGNNFRNKRVHWYQQKPGQAPVLVIYYDSDRPSGIPERFSGSRSGNTATLTISRVEAGDEADYYCQVWDSSTDRPLFGGGTKLTVLGA

IC50 [6]: 82 nM
B12: GIL60 scFv, fully germlined (scFv)
scFv: EVQLVESGGGVVRPGGSLRLSCAASGFTFDDYGMNWVRQAPGKGLEWVSGVNWNGGTRDYAASVKGRFTISRDNAKNSLYLQMNSLRAEDTALYHCARGWYSGSFYYFGYWGRGTLVTVSSGGGGSGGGGSGGGGSAQAALTQPASVSGSPGQSITISCTGASGDVGAYNFVSWYQQHPGKAPKLIIYDVNKRPSGVSNRFSGSKSGNTASLTISGLQAEDEADYYCSSYTSTFSVVFGGGTKLTVLGA

IC50 [1]: 180 nM
B13: GIL45 IgG (non-germlined parent) (antibody, V domains shown)
VH: QMQLVQSGGGVVQPGRSLRLSCAASGFTFSNYGMYWVRQAPGKGLEWVAHIWYDGSNEKYADSVKGRMTVSRDNSRNTLYLQMNSLRAEDTAVYYCATEQHWITAFDIWGKGTLVTVSS
VL: QSVLTQPASVSGSPGQSITISCTGTSSDVGGYNYVSWYQQHPGKAPKLMIYEGSKRPSGVSNRFSGSKSGNTASLTISGLQAEDEADYYCSSYTTRSTRVFGGGTKLTVLG
notes: as for B1

IC50 [1]: 2 nM
B14: GIL68 IgG (non-germlined parent) (antibody, V domains shown)
VH: EVQLVQSGAEVKKPGASVKVSCQASGYTFSDYYIHWVRQTPGQGFEWMGWVNPDTGGTRYAQKFQGWVTMTRDMSNTTAYMELPRLRDDDTAVYYCARDLTGFDPFDIWGQGTLVTVSS
VL: QSVLTQPPSVSVAPGKTATITCGGNNFRNKRVHWYQQRPGQAPVLVIYYDSDRPSGIPERFSGSRSGNTATLTISRVEAGDEADFYCQVWDSSTDRPLFGGGTKLTVLG
notes: Human IgG4 heavy chain constant domain; Cryptate labeled in the HTRF assay; also called cryptate labeled GIL68 IgG
